Molecular target: T1, MICA on human tumor cells (A-375, A549, HCT-15, MDA-MB-231) (human, UniProt Q29983 24-383)
T1 construct: whole, on cells
T1 sequence (looked up): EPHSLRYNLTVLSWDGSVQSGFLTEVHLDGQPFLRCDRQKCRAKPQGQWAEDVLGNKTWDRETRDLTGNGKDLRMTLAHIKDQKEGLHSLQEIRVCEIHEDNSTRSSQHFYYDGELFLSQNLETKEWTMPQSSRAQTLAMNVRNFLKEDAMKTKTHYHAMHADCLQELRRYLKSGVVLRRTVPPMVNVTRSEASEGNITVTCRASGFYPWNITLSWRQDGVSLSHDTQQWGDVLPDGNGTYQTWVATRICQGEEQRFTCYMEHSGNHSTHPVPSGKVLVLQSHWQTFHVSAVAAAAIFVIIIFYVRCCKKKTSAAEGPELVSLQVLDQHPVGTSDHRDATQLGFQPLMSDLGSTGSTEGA
Assay: flow cytometry on HCT-15 cells, Alexa-647 goat anti-human secondary, average fluorescence intensity
Procedure: (1) Tumor cells were diluted to a density of 2×10⁶/mL with PBS and then added into a 1.5 ml EP tube in a volume of 100 l/tube. 10 l/tube of goat serum was added into the EP tube; and blocking was conducted at 4° C. for 30 min. Antibody h5A1 (having a heavy chain sequence as set forth in SEQ ID NO: 11 and a light chain sequence as set forth in SEQ ID NO: 12), antibody h5A1002 (having a heavy chain sequence as set forth in SEQ ID NO: 13 and a light chain sequence as set forth in SEQ ID NO: 14), and control IgG1 (purchased from Biointron) were gradient-diluted (at a highest working concentration of 50 μg/ml, 10 gradients, diluted by 3 times for each gradient) and added. The tube was incubated at 4° C. for 30 min. 1 mL of PBS was added into the EP tube, and centrifugation was conducted 4° C. at a rate of 3,500 rpm for 5 min. The supernatant was removed. The EP tube was washed once with the PBS. The supernatant was removed after centrifugation. The cells were resuspended with PBS in a volume of 100 l/tube. An Alexa-647 labeled goat anti-human secondary antibody (purchased from Jackson lab) was added into the tube in a volume of 1 l/tube; and the plate was incubated in the dark at 4° C. for 30 min. The tube was washed twice with PBS, and the supernatant was removed after centrifugation. […]

EC50 (read off the curve): ~1 µg/mL
B1: affinity maturation antibody h5A1002 (antibody, V domains shown)
VH: QVQLQESGPGLVKPSETLSLTCTVSGFSLTTYGGHWIRQPPGKGLEWIGMIWTDGWTDYNAAFISRVTISVDTSKNQFSLKLSSVTAADTAVYYCARKGHGYYYAMDYWGQGTLVTVSS
VL: EIVLTQSPGTLSLSPGERATLSCTASSSVSSSYLHWYQQKPGQAPRLLIYSTSNLISGIPDRFSGSGSGTDFTLTISRLEPEDFAVYYCHQYHRSPFTFGQGTKLEIKR
notes: Human IgG1, kappa; also called h5A1002-hIgG1

Source: patent publication US20240368285A1 (HEFEI TG IMMUNOPHARMA, published 2024)
